{"source": "paper PMC517823", "about": "(2004)", "binders": {"B1": {"name": "FtsY D330(135)A (protein)", "chain": "ASEQAVEEQPQAHTEAEAETFAADVVEVTEQVAESEKAQPEAEVVAQPEPVVEETPEPVAIEREELPLPEDVNAEAVSPEEWQAEAETVEIVEAAEEEAAKEEITDEELETALAAEAAEEAVMVVPPAEEEQPVEEIAQEQEKPTKEGFFARLKRSLLKTKENLGSGFISLFRGKKIDDDLFEELEEQLLIADVGVETTRKIITNLTEGASRKQLRDAEALYGLLKEEMGEILAKVDEPLNVEGKAPFVILMVGVNGVGKTTTIGKLARQFEQQGKSVMLAAGATFRAAAVEQLQVWGQRNNIPVIAQHTGADSASVIFDAIQAAKARNIDVLIADTAGRLQNKSHLMEELKKIVRVMKKLDVEAPHEVMLTIDASTGQNAVSQAKLFHEAVGLTGITLTKLDGTAKGGVIFSVADQFGIPIRYIGVGERIEDLRPFKADDFIEALFARED"}, "B2": {"name": "FtsY T307(112)A (domain or fragment)", "chain": "B1 chain with T261A, A284D"}, "B3": {"name": "FtsY Asn302(107) to Trp (domain or fragment)", "chain": "B1 chain with N256W, A284D"}, "B4": {"name": "FtsY K312(117)A (protein)", "chain": "B1 chain with K266A, A284D"}, "B5": {"name": "FtsY Q339(144)A (protein)", "chain": "B1 chain with A284D, Q293A"}, "B6": {"name": "FtsY Asn302(107) to Ala (domain or fragment)", "chain": "B1 chain with N256A, A284D"}, "B7": {"name": "FtsY T307(112)W (protein)", "chain": "B1 chain with T261W, A284D"}, "B8": {"name": "FtsY D479(278)A (protein)", "chain": "B1 chain with A284D, D433A"}, "B9": {"name": "FtsY G454(253)W (protein)", "chain": "B1 chain with A284D, G408W"}, "B10": {"name": "FtsY A336(141)W (domain or fragment)", "chain": "B1 chain with A284D, A290W"}, "B11": {"name": "FtsY K306(111)A (protein)", "chain": "B1 chain with K260A, A284D"}, "B12": {"name": "FtsY D382(187)A (protein)", "chain": "B1 chain with A284D, D336A"}, "B13": {"name": "FtsY R333(138)A (domain or fragment)", "chain": "B1 chain with A284D, R287A"}, "B14": {"name": "FtsY K453(252)E (protein)", "chain": "B1 chain with A284D, K407E"}, "B15": {"name": "FtsY K447(246)A (protein)", "chain": "B1 chain with A284D, K401A"}}, "key": {"[1]": {"biological_target": "T1, Ffh (UniProt P0AGD7 1-453)", "T1 chain": "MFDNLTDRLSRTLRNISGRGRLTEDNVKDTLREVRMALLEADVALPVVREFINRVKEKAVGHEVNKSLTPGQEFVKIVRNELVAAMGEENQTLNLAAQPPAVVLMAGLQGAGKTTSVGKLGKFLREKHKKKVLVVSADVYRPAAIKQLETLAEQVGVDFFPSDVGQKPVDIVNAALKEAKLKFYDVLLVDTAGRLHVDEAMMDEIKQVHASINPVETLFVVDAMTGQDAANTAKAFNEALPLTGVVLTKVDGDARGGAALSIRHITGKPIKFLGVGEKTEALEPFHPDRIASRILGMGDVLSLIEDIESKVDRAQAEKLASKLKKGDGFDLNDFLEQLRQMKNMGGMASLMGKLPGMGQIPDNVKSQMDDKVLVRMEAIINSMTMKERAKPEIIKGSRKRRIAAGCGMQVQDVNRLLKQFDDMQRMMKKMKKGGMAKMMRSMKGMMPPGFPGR", "test": "GTP; inhibition assay"}, "[2]": {"biological_target": "T1, Ffh", "test": "GTP; inhibition assay"}}, "note": "Where a chain is given by its changes, count along the chain named. Where two headings read alike, the source gives them in different places.", "data": [{"binder": "B1", "values": [{"measurement": "Ki", "setting": "[1]", "result": 2.4, "unit": "µM"}]}, {"binder": "B2", "values": [{"measurement": "Ki", "setting": "[2]", "result": 5.5, "unit": "µM"}, {"measurement": "Ki", "setting": "[1]", "result": 7.1, "unit": "µM"}]}, {"binder": "B3", "values": [{"measurement": "Ki", "setting": "[1]", "result": 0.14, "unit": "µM"}]}, {"binder": "B4", "values": [{"measurement": "Ki", "setting": "[1]", "result": 2.4, "unit": "µM"}]}, {"binder": "B5", "values": [{"measurement": "Ki", "setting": "[1]", "result": 3.9, "unit": "µM"}]}, {"binder": "B6", "values": [{"measurement": "Ki", "setting": "[1]", "result": 0.11, "unit": "µM"}]}, {"binder": "B7", "values": [{"measurement": "Ki", "setting": "[1]", "result": 9.9, "unit": "µM"}]}, {"binder": "B8", "values": [{"measurement": "Ki", "setting": "[1]", "result": 2.8, "unit": "µM"}]}, {"binder": "B9", "values": [{"measurement": "Ki", "setting": "[1]", "result": 4.2, "unit": "µM"}]}, {"binder": "B10", "values": [{"measurement": "Ki", "setting": "[1]", "result": 0.16, "unit": "µM"}]}, {"binder": "B11", "values": [{"measurement": "Ki", "setting": "[1]", "result": 3.5, "unit": "µM"}]}, {"binder": "B12", "values": [{"measurement": "Ki", "setting": "[1]", "result": 27, "unit": "µM"}]}, {"binder": "B13", "values": [{"measurement": "Ki", "setting": "[1]", "result": 0.24, "unit": "µM"}]}, {"binder": "B14", "values": [{"measurement": "Ki", "setting": "[1]", "result": 3.1, "unit": "µM"}]}, {"binder": "B15", "values": [{"measurement": "Ki", "setting": "[1]", "result": 11, "unit": "µM"}]}]}
